Data taken from publication PMC10586629.

Target: EDE1-C10 IgG1
Assay: shotgun alanine-scanning mutagenesis library binding screen
Conditions: read off a plot

| Substance | percent of parent |
| --- | --- |
| wild-type DENV2 16681 prM/E expressed in HEK-293T cells G78A | 44 % WT |
| wild-type DENV2 16681 prM/E expressed in HEK-293T cells I113A | 73 % WT |
| wild-type DENV2 16681 prM/E expressed in HEK-293T cells K310A | -4 % WT |
| wild-type DENV2 16681 prM/E expressed in HEK-293T cells L82A | 57 % WT |
| wild-type DENV2 16681 prM/E expressed in HEK-293T cells M6A | 82 % WT |
| wild-type DENV2 16681 prM/E expressed in HEK-293T cells N153A | 61 % WT |
| wild-type DENV2 16681 prM/E expressed in HEK-293T cells Q77A | 72 % WT |
| wild-type DENV2 16681 prM/E expressed in HEK-293T cells T155A | 81 % WT |
| wild-type DENV2 16681 prM/E expressed in HEK-293T cells V97A | 74 % WT |
| wild-type DENV2 16681 prM/E expressed in HEK-293T cells V308A | 53 % WT |
| wild-type DENV2 16681 prM/E expressed in HEK-293T cells V309A | 57 % WT |
